{
  "source": "patent US10155020B2",
  "about": "“Compositions and methods for treating hepatitis B” (The Regents of the University of Colorado, a body corporate, priority 2012, dated 2018)",
  "key": {"[1]": {"system": "cytosolic Ca^2+ in PLM neurons", "test": "Cameleon FRET cytosolic calcium imaging in PLM neurons (bzIs17)", "assay_type": "in vivo, C. elegans"}, "HBV DNA replication": {"system": "HBV DNA replication", "test": "HBV DNA replication in pHBV-transfected HepG2 cells", "assay_type": "cell-based, hepatitis B virus", "settings": "cells transfected with mutant HBV genome HBx(G124L, I127A); 5 μM", "method": "Quantification of HBV DNA replication and HBcAg. Southern hybridization analysis and quantitative real-time PCR were used to quantify the amount of HBV replication DNA intermediates isolated from HepG2 cells or from mouse livers. The level of cytoplasmic HBcAg was measured by chemiluminescence using a commercial assay kit.\nSouthern Blot Analysis. HepG2 cells (3×10 cm plate per sample) transfected with the pHBV replicon (wild-type or mutant) were washed twice with cold phosphate-buffered saline (PBS) and lysed in 750 μl NET buffer (50 mM Tris-HCl pH 7.5, 1 mM EDTA, 100 mM NaCl, 0.5% Nonidet P-40) per 10 cm plate for 1 hour. HepG2 cell lysates were clarified by centrifugation at 12000 g for 30 minutes at 4° C. The supernatant was adjusted to 6 mM CaCl2 and treated with 100 μg/ml of Micrococcal nuclease for 30 minutes at 37° C. The reaction was stopped by addition of EDTA to a final concentration of 25 mM. […]\nQuantitative Real-Time PCR Analysis. […] The pHBV plasmid was used as the standard for quantification and serial dilutions from 2×10^8 to 200 IU/ml were prepared. The primer sequences for quantitative PCR were chosen carefully from regions coding for HBV S antigen and Polymerase. […] PCR products were analyzed by fluorescence. […] The measured raw copy number from each reaction was calculated using the CT value of each PCR interpolated against the linear regression of the standard curve. […]"}, "PLM neurons": {"system": "PLM neurons", "test": "PLM touch cell killing by HBx in C. elegans", "assay_type": "in vivo"}, "CED-9 (C. elegans)": {"molecular_target": "CED-9 (C. elegans) (UniProt P41958)", "test": "isothermal titration calorimetry; peptaibol TK titrated into CED-9"}, "[2]": {"molecular_target": "CED-9 pre-incubated with peptaibol TK (C. elegans; Trichoderma pseudokoningii) (UniProt P41958)", "test": "isothermal titration calorimetry; CED-9 pre-incubated with peptaibol TK, titrated with EGL-1"}, "CED-9 [3]": {"molecular_target": "T1, CED-9 (Caenorhabditis elegans, UniProt P41958)", "T1 sequence (P41958 1-280)": "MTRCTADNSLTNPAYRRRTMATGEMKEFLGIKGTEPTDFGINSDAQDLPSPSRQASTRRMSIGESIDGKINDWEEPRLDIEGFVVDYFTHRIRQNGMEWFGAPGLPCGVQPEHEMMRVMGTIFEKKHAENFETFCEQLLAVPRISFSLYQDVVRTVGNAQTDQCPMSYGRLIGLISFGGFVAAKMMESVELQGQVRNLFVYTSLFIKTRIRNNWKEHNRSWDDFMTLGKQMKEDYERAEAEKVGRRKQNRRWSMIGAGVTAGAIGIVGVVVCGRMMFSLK", "test": "Isothermal titration calorimetry (ITC), titration of CED-9", "assay_type": "binding, C. elegans", "settings": "no peptaibol TK"}, "CED-9 [4]": {"molecular_target": "T2, CED-9 (C. elegans, UniProt P41958 1-251)", "T2 sequence (looked up)": "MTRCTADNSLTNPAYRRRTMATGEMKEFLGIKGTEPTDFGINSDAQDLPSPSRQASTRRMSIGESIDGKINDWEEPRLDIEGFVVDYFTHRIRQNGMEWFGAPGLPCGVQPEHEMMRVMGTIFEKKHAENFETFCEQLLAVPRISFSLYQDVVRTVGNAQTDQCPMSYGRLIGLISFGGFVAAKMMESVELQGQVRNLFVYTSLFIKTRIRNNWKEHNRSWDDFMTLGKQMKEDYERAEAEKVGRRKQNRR", "test": "isothermal titration calorimetry"}, "Bcl-2 family proteins": {"molecular_target": "Bcl-2 family proteins", "test": "cell-based or functional assay"}, "Mcl-1 [5]": {"molecular_target": "T3, Mcl-1 (human, UniProt Q07820 1-350)", "T3 construct": "also called anti-apoptotic Bcl-2 family member Mcl-1", "test": "co-immunoprecipitation with anti-HBx antibody from pHBV-transfected HepG2 cells, immunoblot"}, "[6]": {"molecular_target": "T4, CED-9 (in C. elegans animals) (C. elegans, UniProt P41958 1-280)", "T4 sequence": "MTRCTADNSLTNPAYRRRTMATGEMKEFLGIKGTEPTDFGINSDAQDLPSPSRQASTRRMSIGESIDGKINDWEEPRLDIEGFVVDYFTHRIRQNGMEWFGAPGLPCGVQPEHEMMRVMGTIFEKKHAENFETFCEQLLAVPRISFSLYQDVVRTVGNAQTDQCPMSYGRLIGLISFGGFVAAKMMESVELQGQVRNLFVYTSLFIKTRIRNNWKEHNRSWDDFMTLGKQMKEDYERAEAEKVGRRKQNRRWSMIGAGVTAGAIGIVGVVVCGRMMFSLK", "test": "cell-based or functional assay"}, "His6-mBax(1-173)": {"molecular_target": "T5, His6-mBax(1-173) (mouse, UniProt Q07813 1-173)", "T5 construct": "range 1-173; also called mouse Bax(1-173)", "T5 sequence (Q07813 other isoform, or with tags, fused parts or gaps limits assumed)": "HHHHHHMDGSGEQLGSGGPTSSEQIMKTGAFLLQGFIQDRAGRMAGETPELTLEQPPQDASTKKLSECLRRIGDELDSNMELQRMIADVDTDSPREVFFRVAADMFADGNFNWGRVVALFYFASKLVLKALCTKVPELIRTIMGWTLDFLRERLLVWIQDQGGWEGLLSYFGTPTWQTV", "test": "GST pull-down, immunoblot"}, "[7]": {"molecular_target": "T6, CED-9(68-251; G169E)-His6 (C. elegans, UniProt P41958 68-251)", "T6 construct": "range 68-251; also called CED-9(G169E); mutant CED-9(G169E) protein", "T6 sequence": "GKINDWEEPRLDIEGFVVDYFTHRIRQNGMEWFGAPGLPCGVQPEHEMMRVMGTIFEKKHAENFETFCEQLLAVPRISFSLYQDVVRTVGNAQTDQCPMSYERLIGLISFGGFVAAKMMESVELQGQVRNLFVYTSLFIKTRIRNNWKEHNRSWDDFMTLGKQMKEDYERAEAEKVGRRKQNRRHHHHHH", "test": "GST pull-down, immunoblot"}, "Mcl-1 [8]": {"molecular_target": "T3, Mcl-1", "test": "co-immunoprecipitation with anti-Flag antibody from HepG2 cells, immunoblot"}, "human Bcl-xL [9]": {"molecular_target": "T7, human Bcl-xL (human, UniProt Q07817 1-233)", "T7 construct": "also called endogenous Bcl-xL", "T7 sequence (Q07817 whole entry)": "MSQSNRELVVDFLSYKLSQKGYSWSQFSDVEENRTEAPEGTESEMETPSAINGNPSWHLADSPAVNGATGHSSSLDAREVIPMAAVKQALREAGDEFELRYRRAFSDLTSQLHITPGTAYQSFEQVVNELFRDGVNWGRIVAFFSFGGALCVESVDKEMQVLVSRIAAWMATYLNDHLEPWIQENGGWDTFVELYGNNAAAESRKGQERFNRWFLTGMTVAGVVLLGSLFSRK", "test": "co-immunoprecipitation with anti-Flag antibody from HepG2 cells, immunoblot"}, "human Bcl-xL [10]": {"molecular_target": "T7, human Bcl-xL", "test": "co-immunoprecipitation with anti-HBx antibody from pHBV-transfected HepG2 cells, immunoblot"}},
  "note": "Where “and” joins values, the source holds several entries; their conditions need not be identical. Equal entries are not always repeated.",
  "data": [
    {"molecule": "C/C=C(/C)C(=O)O[C@H]1C(C)=C2[C@H]([C@@H]1OC(=O)CCCCCCC)[C@@](C)(OC(C)=O)C[C@H](OC(=O)CCC)[C@@]1(O)[C@H]2OC(=O)[C@@]1(C)O", "note": "[thapsigargin]", "values": [
      {"measurement": "FRET ratio in PLM neurons", "setting": "[1]; bzIs17 animals, vs untreated or vector-treated animals", "value": "significantly higher"}
    ]},
    {"molecule": "C[C@H](CCC(=O)O)C[C@H](C)C[C@H](C)C(=O)/C=C(\\O)[C@H](C)C[C@H](C)C/C=C/[C@@H](C)[C@@H](O)[C@@H](C)[C@@H](O)C[C@@H]1CC[C@@](C)([C@H]2CC[C@@](C)([C@@H](C)O)O2)O1", "note": "[ionomycin]", "values": [
      {"measurement": "HBV DNA replication", "setting": "HBV DNA replication", "value": "largely rescued"}
    ]},
    {"molecule": "cyclosporin A [CsA]", "values": [
      {"measurement": "percentage of missing PLM", "setting": "PLM neurons; smIs98 animals that normally lost 50% of PLM neurons", "value": 15, "unit": "%"},
      {"measurement": "PLM death", "setting": "PLM neurons; smIs98 animals with loss of ced-3", "value": 4, "unit": "%"},
      {"measurement": "HBx-induced cytosolic Ca^2+ increase (FRET ratio)", "setting": "[1]; bzIs17, asp-3(tm4559), smIs451 animals", "value": "completely suppressed"}
    ]},
    {"molecule": "peptaibol TK (peptide)", "values": [
      {"measurement": "Ka", "setting": "CED-9 (C. elegans)", "value": 42600, "unit": "M⁻¹"}
    ]},
    {"molecule": "EGL-1 (other, C. elegans, UniProt O61667 16-106, looked up, also called BH3-only protein EGL-1) MSNVFDVQSSVFYNEKNMFYSSSQDFSSCEDSSQFADDSGFFDDSEISSIGYEIGSKLAAMCDDFDAQMMSYSAHASDRSLFHRLLDFFAF", "values": [
      {"measurement": "Ka", "setting": "[2]", "value": "1.52e+08", "unit": "M⁻¹"},
      {"measurement": "fold of the binding affinity between CED-9 and EGL-1 without peptaibol TK", "setting": "[2]", "value": 38, "unit": "fold"},
      {"measurement": "binding affinity of EGL-1 to CED-9", "setting": "CED-9 [3]", "value": "4.04e+06", "unit": "M⁻¹"},
      {"measurement": "Ka", "setting": "CED-9 [4]", "value": "4.04e+06", "unit": "M⁻¹"}
    ]},
    {"molecule": "HBx(G124L, I127A), P03165 1-154 (protein) MAARLCCQLDPARDVLCLRPVGAESRGRPFSGSLGTLSSPSPSAVPTDHGAHLSLRGLPVCAFSSAGPCALRFTSARRMETTVNAHQILPKVLHKRTLGLSAMSTTDLEAYFKDCLFKDWEELLEEARLKVFVLGGCRHKLVCAPAPCNFFTSA", "values": [
      {"measurement": "reduction in HBV DNA replication against the wild-type HBV genome, Q-PCR of viral particles from HepG2 cells", "setting": "Bcl-2 family proteins", "value": "8 fold and 9 fold"},
      {"measurement": "reduction of replicative DNA intermediates in mouse liver against the wild-type pHBV replicon, southern blot", "setting": "Bcl-2 family proteins", "value": "2 to 3", "unit": "fold"}
    ]},
    {"molecule": "HBV x protein (HBx) (other, also called hepatitis B virus X protein) MAARLCCQLDPARDVLCLRPVGAESRGRPFSGSLGTLSSPSPSAVPTDHGAHLSLRGLPVCAFSSAGPCALRFTSARRMETTVNAHQILPKVLHKRTLGLSAMSTTDLEAYFKDCLFKDWEELGEEIRLKVFVLGGCRHKLVCAPAPCNFFTSA", "values": [
      {"measurement": "binding result", "setting": "Mcl-1 [5]", "value": "no binding"},
      {"measurement": "FRET ratio of cameleon Ca2+ sensor in PLM neurons (cytosolic Ca2+)", "setting": "[6]", "value": 40, "unit": "%"}
    ]},
    {"molecule": "GST-HBx (other, also called pGEX-4T-2-HBx) MAARLCCQLDPARDVLCLRPVGAESRGRPFSGSLGTLSSPSPSAVPTDHGAHLSLRGLPVCAFSSAGPCALRFTSARRMETTVNAHQILPKVLHKRTLGLSAMSTTDLEAYFKDCLFKDWEELGEEIRLKVFVLGGCRHKLVCAPAPCNFFTSA", "values": [
      {"measurement": "binding result", "setting": "His6-mBax(1-173)", "value": "no binding"},
      {"measurement": "binding result", "setting": "[7]", "value": "no binding"}
    ]},
    {"molecule": "Flag-HBx (other, also called pcDNA3.1-Flag-HBx) MAARLCCQLDPARDVLCLRPVGAESRGRPFSGSLGTLSSPSPSAVPTDHGAHLSLRGLPVCAFSSAGPCALRFTSARRMETTVNAHQILPKVLHKRTLGLSAMSTTDLEAYFKDCLFKDWEELGEEIRLKVFVLGGCRHKLVCAPAPCNFFTSA", "values": [
      {"measurement": "binding result", "setting": "Mcl-1 [8]", "value": "no binding"}
    ]},
    {"molecule": "Flag-HBx(G124L, I127A) (other, also called pcDNA3.1-Flag-HBx(G124L, I127A)) MAARLCCQLDPARDVLCLRPVGAESRGRPFSGSLGTLSSPSPSAVPTDHGAHLSLRGLPVCAFSSAGPCALRFTSARRMETTVNAHQILPKVLHKRTLGLSAMSTTDLEAYFKDCLFKDWEELLEEARLKVFVLGGCRHKLVCAPAPCNFFTSA", "values": [
      {"measurement": "binding result", "setting": "human Bcl-xL [9]", "value": "no binding"}
    ]},
    {"molecule": "HBx(G124L, I127A) (other, also called mutant pHBV) MAARLCCQLDPARDVLCLRPVGAESRGRPFSGSLGTLSSPSPSAVPTDHGAHLSLRGLPVCAFSSAGPCALRFTSARRMETTVNAHQILPKVLHKRTLGLSAMSTTDLEAYFKDCLFKDWEELLEEARLKVFVLGGCRHKLVCAPAPCNFFTSA", "values": [
      {"measurement": "binding result", "setting": "human Bcl-xL [10]", "value": "no binding"}
    ]}
  ]
}
